Experimental data as given in the supplement of paper PMC9112550, “Optimization of the antimicrobial peptide Bac7 by deep mutational scanning” (BMC Biology, 2022).

Each sequence was assayed on Escherichia coli TOP10 (assay: shrunken log2 fold change of peptide-encoding DNA abundance (4.5 h post-induction vs induction); higher = less antimicrobial activity (less host growth inhibition)). Conditions: time post-induction: 4.5 h; library: site-saturation at positions 5, 18, 19, 20.
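Also: peptides expressed intracellularly from a pBAD plasmid library in pooled LB shake-flask culture, induced with 0.3% L-arabinose, DNA abundance read by NGS, three biological replicates, DESeq2 with apeglm shrinkage.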

Sequence	shrunken log2 fold change
RRIRQRPPRLPRPRPRPTETPRP	0.0687
RRIRQRPPRLPRPRPRPTFDPRP	0.168
RRIRQRPPRLPRPRPRPTGQPRP	0.146
RRIRQRPPRLPRPRPRPTHHPRP	0.0945
RRIRQRPPRLPRPRPRPTHQPRP	0.403
RRIRQRPPRLPRPRPRPTHYPRP	0.975
RRIRQRPPRLPRPRPRPTLAPRP	0.783
RRIRQRPPRLPRPRPRPTPDPRP	0.711
RRIRQRPPRLPRPRPRPTPEPRP	0.0617
RRIRQRPPRLPRPRPRPTPIPRP	0.182
RRIRQRPPRLPRPRPRPTQKPRP	0.0237
RRIRQRPPRLPRPRPRPTQVPRP	-0.0311
RRIRQRPPRLPRPRPRPTRIPRP	0.0389
RRIRQRPPRLPRPRPRPTRKPRP	-0.0205
RRIRQRPPRLPRPRPRPTVAPRP	0.118
RRIRQRPPRLPRPRPRPTVYPRP	0.079
RRIRQRPPRLPRPRPRPTWEPRP	0.0645
RRIRQRPPRLPRPRPRPTWWPRP	0.314
RRIRQRPPRLPRPRPRPTYLPRP	-0.562
RRIRQRPPRLPRPRPRPVALPRP	-0.0318
RRIRQRPPRLPRPRPRPVASPRP	-0.0704
RRIRQRPPRLPRPRPRPVCFPRP	-0.139
RRIRQRPPRLPRPRPRPVEAPRP	0.341
RRIRQRPPRLPRPRPRPVFEPRP	0.0624
RRIRQRPPRLPRPRPRPVFIPRP	-0.288

Sequence	shrunken log2 fold change
RRIRQRPPRLPRPRPRPVFPPRP	0.212
RRIRQRPPRLPRPRPRPVGCPRP	0.23
RRIRQRPPRLPRPRPRPVHWPRP	0.188
RRIRQRPPRLPRPRPRPVIFPRP	-0.0797
RRIRQRPPRLPRPRPRPVIHPRP	-0.455
RRIRQRPPRLPRPRPRPVIPPRP	-1.12
RRIRQRPPRLPRPRPRPVKRPRP	0.103
RRIRQRPPRLPRPRPRPVMSPRP	-0.215
RRIRQRPPRLPRPRPRPVPYPRP	-0.363
RRIRQRPPRLPRPRPRPVQIPRP	0.0268
RRIRQRPPRLPRPRPRPVQSPRP	0.0508
RRIRQRPPRLPRPRPRPVRDPRP	0.556
RRIRQRPPRLPRPRPRPVRHPRP	-0.0023
RRIRQRPPRLPRPRPRPVRMPRP	0.149
RRIRQRPPRLPRPRPRPVSDPRP	-0.0568
RRIRQRPPRLPRPRPRPVSLPRP	-0.131
RRIRQRPPRLPRPRPRPVSPPRP	-0.0264
RRIRQRPPRLPRPRPRPVSQPRP	0.00815
RRIRQRPPRLPRPRPRPVTLPRP	-0.153
RRIRQRPPRLPRPRPRPVWRPRP	0.205
RRIRQRPPRLPRPRPRPVWTPRP	0.0102
RRIRQRPPRLPRPRPRPVWVPRP	0.0799
RRIRQRPPRLPRPRPRPVYPPRP	-0.0407
RRIRQRPPRLPRPRPRPWAHPRP	-0.0595
RRIRQRPPRLPRPRPRPWALPRP	-0.0992

Sequence	shrunken log2 fold change
RRIRQRPPRLPRPRPRPWASPRP	-0.017
RRIRQRPPRLPRPRPRPWAVPRP	0.066
RRIRQRPPRLPRPRPRPWCIPRP	0.0342
RRIRQRPPRLPRPRPRPWCMPRP	-0.342
RRIRQRPPRLPRPRPRPWDKPRP	-0.153
RRIRQRPPRLPRPRPRPWDWPRP	0.0372
RRIRQRPPRLPRPRPRPWFDPRP	-0.253
RRIRQRPPRLPRPRPRPWFRPRP	-0.145
RRIRQRPPRLPRPRPRPWFTPRP	-0.356
RRIRQRPPRLPRPRPRPWFVPRP	-0.423
RRIRQRPPRLPRPRPRPWGDPRP	-0.138
RRIRQRPPRLPRPRPRPWGGPRP	0.102
RRIRQRPPRLPRPRPRPWGIPRP	0.0274
RRIRQRPPRLPRPRPRPWIIPRP	-0.329
RRIRQRPPRLPRPRPRPWINPRP	-0.408
RRIRQRPPRLPRPRPRPWKHPRP	-0.0075
RRIRQRPPRLPRPRPRPWKNPRP	0.033
RRIRQRPPRLPRPRPRPWLCPRP	-0.0571
RRIRQRPPRLPRPRPRPWLKPRP	0.0706
RRIRQRPPRLPRPRPRPWLLPRP	-0.151
RRIRQRPPRLPRPRPRPWMKPRP	0.0212
RRIRQRPPRLPRPRPRPWSGPRP	0.082
RRIRQRPPRLPRPRPRPWSLPRP	-0.0828
RRIRQRPPRLPRPRPRPWTDPRP	0.0166
RRIRQRPPRLPRPRPRPWVAPRP	-0.182
